Data on 15 molecules can be found in patent publication US11278600B2, “Human alpha-galactosidase variants” (Codexis, Inc., priority 2014, dated 2022).

Common to all, as to assay type: biochemical
Data set [1] is described as follows: HTP-analysis of yeast culture supernatants, no challenge (MUGal hydrolysis). As to conditions: activity of the variant/activity of Rd7BB (SEQ ID NO: 44). The essentials: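 Activity read as 4-methylumbelliferyl α-D-galactopyranoside hydrolysis: fluorescence (355/448 nm) after sodium carbonate stop, following 30-180 min at 37° C with 2 mM MUGal stock at pH 4.6–4.8. Enzyme source is unchallenged culture supernatant of INVSc1 yeast expressing GLA variants, grown 66-84 h at 30° C.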

Data set [2] is described as follows: HTP-analysis of supernatants pretreated with acid (MUGal hydrolysis). As to conditions: activity of the variant/activity of Rd7BB (SEQ ID NO: 44); challenge at pH 3.5. The essentials:
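Yeast INVSc1 supernatant, GLA variants; acid challenge: McIlvaine pH 3.3-4.3, 37° C., 1-3 h. Assay: MUGal in McIlvaine pH 4.8 plus citrate pH 4.3, 37° C., 30-180 min, Na2CO3 stop, Ex 355/Em 448 nm.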

A short description of data set [3]: HTP-analysis of supernatants pretreated with base (MUGal hydrolysis). As to conditions: activity of the variant/activity of Rd7BB (SEQ ID NO: 44); challenge at pH 7.5. The method in brief:
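Fluorescence of released 4-MU (Ex 355 nm, Em 448 nm) after carbonate quench reports MUGal hydrolysis by GLA variants secreted from INVSc1 yeast. Before the acidic (pH 4.3-4.8) 30-180 min reaction at 37° C, supernatants had been pre-incubated at pH 7.0-9.7 for 1-18 h at 37° C.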

Numbering of substitutions follows the chain as printed.

B1: 677 (protein)
chain: LDNGLARTPTMGWLHWERFMCNLDCQEEPDSCISEKLFMEMAERMVTEGWKDAGYEYLCIDDCWMAPQRDSEGRLQADPQRFPHGIRQLANHVHSKGLKLGIYADVGNKTCAGFPGSFGYYDIDAQTFADWGVDLLKFDGCYCDSLENLADGYKHMSLALNRTGRPIVYSCEWPLYMWPFQKPNYTEIRQYCNHWRNFADIDDSWASIKSILDWTSRNQERIVDVAGPGGWNDPDMLVIGNFGLSWDQQVTQWALWAIMAAPLFMSNDLRAIDSQARALLQDKDVIAINQDPLGKQGYQLRKGDNFEVWERPLSGDAWAVAIINRQEIGGPRSYTIPVASLGKGVACNPACFITQLLPVKRQLGFYNWTSRLKSHINPTGTVLLQLENTMQTSLKDLL
modifications: Synthetic Polypeptide sequence of Variant No. 677 of mature Human GLA
Turning to B1, in data set [1], the “Relative Activity of GLA Variants After No Challenge (NC)” value is on record as “+ (>0.5 to 1.5 relative activity over Rd7BB (SEQ ID NO: 44))”. Moreover, the “Relative Activity of GLA Variants After Challenge at pH 3.5” value (shortened to “Relative Activity … at pH 3.5”) in data set [2] is “+ (>0.5 to 1.5 relative activity over Rd7BB (SEQ ID NO: 44))”. Also, in data set [3], the “Relative Activity of GLA Variants After Challenge at pH 7.5” value (shortened to “Relative Activity … at pH 7.5”) is on record as “− (<0.5 relative activity to Rd7BB (SEQ ID NO: 44))”.

B2: 684 (protein)
chain: B1 chain with W253M, D273S, S274P, R277K, W368A
modifications: Synthetic Polypeptide sequence of Variant No. 684 of mature Human GLA
As to B2, the “Relative Activity of GLA Variants After No Challenge (NC)” value in data set [1] is given as “+ (>0.5 to 1.5 relative activity over Rd7BB (SEQ ID NO: 44))”. Also, the “Relative Activity … at pH 3.5” value in data set [2] is reported as “+ (>0.5 to 1.5 relative activity over Rd7BB (SEQ ID NO: 44))”. Besides, the “Relative Activity … at pH 7.5” value in data set [3] is reported as “+ (>0.5 to 1.5 relative activity over Rd7BB (SEQ ID NO: 44))”.

B3: 682 (protein)
chain: B1 chain with W253M, D273S, S274P, R277K, D316Y
modifications: Synthetic Polypeptide sequence of Variant No. 682 of mature Human GLA
For B3, the “Relative Activity of GLA Variants After No Challenge (NC)” value in data set [1] was “+ (>0.5 to 1.5 relative activity over Rd7BB (SEQ ID NO: 44))”. Also, the “Relative Activity … at pH 3.5” value in data set [2] is given as “+ (>0.5 to 1.5 relative activity over Rd7BB (SEQ ID NO: 44))”. Besides, the “Relative Activity … at pH 7.5” value in data set [3] is reported as “+ (>0.5 to 1.5 relative activity over Rd7BB (SEQ ID NO: 44))”.

B4: 680 (protein)
chain: B1 chain with T10P, M39E, W253M, D273S, S274P, R277K
modifications: Synthetic Polypeptide sequence of Variant No. 680 of mature Human GLA
On to B4, for which the “Relative Activity of GLA Variants After No Challenge (NC)” value in data set [1] is recorded as “+ (>0.5 to 1.5 relative activity over Rd7BB (SEQ ID NO: 44))”. For the same molecule, the “Relative Activity … at pH 3.5” value in data set [2] is “+ (>0.5 to 1.5 relative activity over Rd7BB (SEQ ID NO: 44))”. Further, the “Relative Activity … at pH 7.5” value in data set [3] is reported as “+ (>0.5 to 1.5 relative activity over Rd7BB (SEQ ID NO: 44))”.

B5: 689 (protein)
chain: B1 chain with W253M, D273S, S274P, R277K, N305L
modifications: Synthetic Polypeptide sequence of Variant No. 689 of mature Human GLA
In the case of B5, the “Relative Activity of GLA Variants After No Challenge (NC)” value in data set [1] is given as “+ (>0.5 to 1.5 relative activity over Rd7BB (SEQ ID NO: 44))”. Besides, the “Relative Activity … at pH 3.5” value in data set [2] is reported as “+ (>0.5 to 1.5 relative activity over Rd7BB (SEQ ID NO: 44))”. Moreover, in data set [3], the “Relative Activity … at pH 7.5” value was “+ (>0.5 to 1.5 relative activity over Rd7BB (SEQ ID NO: 44))”.

B6: 687 (protein)
chain: B1 chain with W253M, D273S, S274P, R277K, Q290R, W368A
modifications: Synthetic Polypeptide sequence of Variant No. 687 of mature Human GLA
Turning to B6, the “Relative Activity of GLA Variants After No Challenge (NC)” value in data set [1] is recorded as “+ (>0.5 to 1.5 relative activity over Rd7BB (SEQ ID NO: 44))”. In data set [2], the “Relative Activity … at pH 3.5” value was “− (<0.5 relative activity to Rd7BB (SEQ ID NO: 44))”. Moreover, in data set [3], the “Relative Activity … at pH 7.5” value was “− (<0.5 relative activity to Rd7BB (SEQ ID NO: 44))”.

B7: 690 (protein)
chain: B1 chain with T10P, M156V, W253M, D273S, S274P, R277K
modifications: Synthetic Polypeptide sequence of Variant No. 690 of mature Human GLA
Turning to B7, the “Relative Activity of GLA Variants After No Challenge (NC)” value in data set [1] is given as “+ (>0.5 to 1.5 relative activity over Rd7BB (SEQ ID NO: 44))”. Moreover, the “Relative Activity … at pH 3.5” value in data set [2] is “− (<0.5 relative activity to Rd7BB (SEQ ID NO: 44))”. For the same molecule, the “Relative Activity … at pH 7.5” value in data set [3] is listed as “− (<0.5 relative activity to Rd7BB (SEQ ID NO: 44))”.

B8: 688 (protein)
chain: B1 chain with P228Q, W253M, D273S, S274P, R277K
modifications: Synthetic Polypeptide sequence of Variant No. 688 of mature Human GLA
As to B8, in data set [1], the “Relative Activity of GLA Variants After No Challenge (NC)” value is “+ (>0.5 to 1.5 relative activity over Rd7BB (SEQ ID NO: 44))”. For the same molecule, the “Relative Activity … at pH 3.5” value in data set [2] was “+ (>0.5 to 1.5 relative activity over Rd7BB (SEQ ID NO: 44))”. Also, the “Relative Activity … at pH 7.5” value in data set [3] is on record as “− (<0.5 relative activity to Rd7BB (SEQ ID NO: 44))”.

B9: 641 (protein)
chain: B1 chain with T10P, M39E, W253M, S266P, D273S, S274P, R277K
modifications: Synthetic Polypeptide sequence of Variant No. 641 of mature Human GLA
In the case of B9, the “Relative Activity of GLA Variants After No Challenge (NC)” value in data set [1] is given as “− (<0.5 relative activity to Rd7BB (SEQ ID NO: 44))”. Further, the “Relative Activity … at pH 3.5” value in data set [2] was “− (<0.5 relative activity to Rd7BB (SEQ ID NO: 44))”. Moreover, the “Relative Activity … at pH 7.5” value in data set [3] is “− (<0.5 relative activity to Rd7BB (SEQ ID NO: 44))”.

B10: 640 (protein)
chain: B1 chain with T10P, M39E, E43D, W253M, D273S, S274P, R277K
modifications: Synthetic Polypeptide sequence of Variant No. 640 of mature Human GLA
Consider B10, for which the “Relative Activity of GLA Variants After No Challenge (NC)” value in data set [1] was “+ (>0.5 to 1.5 relative activity over Rd7BB (SEQ ID NO: 44))”. The “Relative Activity … at pH 3.5” value in data set [2] was “+ (>0.5 to 1.5 relative activity over Rd7BB (SEQ ID NO: 44))”. The “Relative Activity … at pH 7.5” value in data set [3] is given as “+ (>0.5 to 1.5 relative activity over Rd7BB (SEQ ID NO: 44))”.

B11: 685 (protein)
chain: B1 chain with E43D, A257G, D273S, S274P, R277K, N305L, W368A
modifications: Synthetic Polypeptide sequence of Variant No. 685 of mature Human GLA
As for B11, in data set [1], the “Relative Activity of GLA Variants After No Challenge (NC)” value is reported as “+ (>0.5 to 1.5 relative activity over Rd7BB (SEQ ID NO: 44))”. In addition, in data set [2], the “Relative Activity … at pH 3.5” value was “− (<0.5 relative activity to Rd7BB (SEQ ID NO: 44))”. Also, the “Relative Activity … at pH 7.5” value in data set [3] is given as “− (<0.5 relative activity to Rd7BB (SEQ ID NO: 44))”.

B12: 678 (protein)
chain: B1 chain with A257G, D273S, S274P, Q281L, A319D
modifications: Synthetic Polypeptide sequence of Variant No. 678 of mature Human GLA
B12: in data set [1], the “Relative Activity of GLA Variants After No Challenge (NC)” value is “− (<0.5 relative activity to Rd7BB (SEQ ID NO: 44))”. Further, the “Relative Activity … at pH 3.5” value in data set [2] is listed as “− (<0.5 relative activity to Rd7BB (SEQ ID NO: 44))”. For the same molecule, in data set [3], the “Relative Activity … at pH 7.5” value was “− (<0.5 relative activity to Rd7BB (SEQ ID NO: 44))”.

B13: 683 (protein)
chain: B1 chain with M39E, E43D, W246P, S274P, R277K, W368A
modifications: Synthetic Polypeptide sequence of Variant No. 683 of mature Human GLA
With B13, the “Relative Activity of GLA Variants After No Challenge (NC)” value in data set [1] was “+ (>0.5 to 1.5 relative activity over Rd7BB (SEQ ID NO: 44))”. Also, in data set [2], the “Relative Activity … at pH 3.5” value is given as “+ (>0.5 to 1.5 relative activity over Rd7BB (SEQ ID NO: 44))”. For the same molecule, the “Relative Activity … at pH 7.5” value in data set [3] is “− (<0.5 relative activity to Rd7BB (SEQ ID NO: 44))”.

B14: 679 (protein)
chain: B1 chain with T10P, M39E, W253M, D273S, S274P, R277K, N305L
modifications: Synthetic Polypeptide sequence of Variant No. 679 of mature Human GLA
B14: the “Relative Activity of GLA Variants After No Challenge (NC)” value in data set [1] is recorded as “+ (>0.5 to 1.5 relative activity over Rd7BB (SEQ ID NO: 44))”. Further, the “Relative Activity … at pH 3.5” value in data set [2] is given as “+ (>0.5 to 1.5 relative activity over Rd7BB (SEQ ID NO: 44))”. Besides, the “Relative Activity … at pH 7.5” value in data set [3] is “+ (>0.5 to 1.5 relative activity over Rd7BB (SEQ ID NO: 44))”.

B15: 681 (protein)
chain: B1 chain with R7P, W253M, D273S, S274P, R277K
modifications: Synthetic Polypeptide sequence of Variant No. 681 of mature Human GLA
B15: in data set [1], the “Relative Activity of GLA Variants After No Challenge (NC)” value is recorded as “− (<0.5 relative activity to Rd7BB (SEQ ID NO: 44))”. In addition, the “Relative Activity … at pH 3.5” value in data set [2] was “− (<0.5 relative activity to Rd7BB (SEQ ID NO: 44))”. The “Relative Activity … at pH 7.5” value in data set [3] is given as “− (<0.5 relative activity to Rd7BB (SEQ ID NO: 44))”.
